Assay [1] addresses T1, human glycophorin A on human red blood cells (human, UniProt P02724 20-150).
T1 construct: whole, on cells; also called human GPA; huGPA
T1 sequence (looked up): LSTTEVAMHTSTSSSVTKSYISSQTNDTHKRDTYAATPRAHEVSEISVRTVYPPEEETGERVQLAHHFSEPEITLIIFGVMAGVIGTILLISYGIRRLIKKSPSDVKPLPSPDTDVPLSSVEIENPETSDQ
Briefly: partition to human RBC, human HemA plasma, 30 min.
Method: (§1) The supernatant containing plasma, platelets and white blood cells was discarded and the red blood cell pellet was resuspended in 10 pellet volumes of PBS (50 mM Phosphate buffer, pH7.4, 150 mM NaCl). The red blood cells were then pelleted by slow speed centrifugation and the red blood cells re-suspended in 10 volumes of PBS. This washing step was repeated 4 more times and the red blood cells finally resuspended in a volume of plasma from Hemophilia patients with less than 1% of normal levels of FVIII (GeorgeKing Bio-Medical, Overland Park, Kans.) to generate a total volume equal to the initial blood volume such that the RBC density was equal to that of normal whole blood. BDD and RBC targeted FVIII molecules were then spiked into RBC suspension in HemA plasma at 1 IU/mL, and incubated at room temperature for 2-3 hours with gentle rotation. […] An additional control was performed in which BDD or RBC targeted FVIII molecules were added at 11U/ml into the same human hemophilia A plasma and incubated for 5 minutes and 180 mins. These samples were used to determine the input FVIII activity in the presence of plasma which was used to calculate the percentage of the molecule that was bound to RBC. All plasma samples were then assayed together for FVIII activity using the Coatest SP assay (DiaPharma, Columbus, Ohio). The assay was performed following the manufacturer's instructions in a 96-well plate format. […] The plate was incubated at 37° C. for 10 minutes with shaking between each reagent addition. […] The amount of FVIII activity in the plasma reflects the amount of unbound FVIII. The FVIII activity of the same molecule spiked in to Hemophilia A plasma alone (no RBC) and incubated for 5 minutes was normalized to 100%.

The target of assay [2] is T1, human glycophorin A on human red blood …. Briefly: partition to human RBC, human HemA plasma, 1 min.
Method: as §1
Assay [3] has the same target. As to the kind of experiment: partition to human RBC, human HemA plasma, 120 min.
Method: as §1
Assay [4] shares this target. As to the kind of experiment: partition to human RBC, human HemA plasma, 60 min.
Method: as §1
Assay [5] has the same target. As to the kind of experiment: partition to human RBC, human HemA plasma, 5 min.
Method: as §1
The target is the same in assay [6]. Briefly: partition to human RBC, human HemA plasma, 15 min.
Method: as §1
The target is the same in assay [7]. Briefly: partition to human RBC, vWF deficient plasma, 15 min.
In assay [8] the target is T2, Cynomolgus monkey glycophorin A on Cynomolgus monkey red blood cells (Cynomolgus monkey).
T2 construct: whole, on cells; also called Cyno GPA; Cyno RBC
Briefly: partition to Cyno RBC, human HemA plasma, 30 min.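 Also: FVIII fusion spiked at 1 IU/mL into RBC suspension at whole-blood density.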
Method: (§2) To evaluate partition to cynomolgus monkey or human red blood cells, whole blood was draw from Cynomolgus monkey or normal human volunteers in to anticoagulant with 4% sodium citrate (Sigma, St Louis, Mo.). The red blood cells were purified by layering the whole blood on to ficoll followed by low speed centrifugation. The supernatant containing plasma, platelets and white blood cells was discarded and the red blood cell pellet was resuspended in 10 pellet volumes of PBS (50 mM Phosphate buffer, pH7.4, 150 mM NaCl). The red blood cells were then pelleted by slow speed centrifugation and the red blood cells re-suspended in 10 volumes of PBS. This washing step was repeated 4 more times and the red blood cells finally resuspended in a volume of plasma from Hemophilia patients with less than 1% of normal levels of FVIII (GeorgeKing Bio-Medical, Overland Park, Kans.) to generate a total volume equal to the initial blood volume such that the RBC density was equal to that of normal whole blood. BDD and RBC targeted FVIII molecules were then spiked into RBC suspension in HemA plasma at 1 IU/mL, and incubated at room temperature for 2-3 hours with gentle rotation. […] An additional control was performed in which BDD or RBC targeted FVIII molecules were added at 11U/ml into the same human hemophilia A plasma and incubated for 5 minutes and 180 mins. These samples were used to determine the input FVIII activity in the presence of plasma which was used to calculate the percentage of the molecule that was bound to RBC. All plasma samples were then assayed together for FVIII activity using the Coatest SP assay (DiaPharma, Columbus, Ohio). The assay was performed following the manufacturer's instructions in a 96-well plate format. […] The plate was incubated at 37° C. for 10 minutes with shaking between each reagent addition.

For assay [9], the target named is T2, Cynomolgus monkey glycophorin A on …. As to the kind of experiment: partition to Cyno RBC, human HemA plasma, 15 min.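 Also: FVIII fusion spiked at 1 IU/mL into RBC suspension at whole-blood density.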
Assay [10] addresses T1, human glycophorin A on human red blood …. As to the kind of experiment: partition to human RBC, vWF deficient plasma, 60 min.
Assay [11] has the same target. Briefly: partition to human RBC, vWF deficient plasma, 120 min.
Assay [12] shares this target. Briefly: partition to human RBC, human HemA plasma, 120 min. The source holds these as a separate data set.
Method: as §1
Assay [13] shares this target. As to the kind of experiment: partition to human RBC, vWF deficient plasma, 30 min.
Assay [14] shares this target. Briefly: partition to human RBC, vWF deficient plasma, 5 min.
In assay [15] the target is T2, Cynomolgus monkey glycophorin A on …. As to the kind of experiment: partition to Cyno RBC, human HemA plasma, 1 min.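 Also: FVIII fusion spiked at 1 IU/mL into RBC suspension at whole-blood density.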
Assay [16] has the same target. As to the kind of experiment: partition to Cyno RBC, human HemA plasma, 60 min.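 Also: FVIII fusion spiked at 1 IU/mL into RBC suspension at whole-blood density.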
Method: as §2
In assay [17] the target is T1, human glycophorin A on human red blood …. As to the kind of experiment: partition to human RBC, vWF deficient plasma, 1 min.
Assay [18] has as its target T3, glycophorin A peptide GP5 (human, biotin at the N-terminus).
T3 construct: Residues 42 to 61 of the human glycophorin A extracellular domain
T3 peptide: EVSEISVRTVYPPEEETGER
As to the kind of experiment: Octet, GP5 peptide on the probe, fusion protein in solution, 1:1 fit. On the technique in general: BLI is a label-free optical method that tracks binding on a fibre tip over time.

For assay [19], the target named is T2, Cynomolgus monkey glycophorin A on …. Briefly: partition to Cyno RBC, human HemA plasma, 120 min.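 Also: FVIII fusion spiked at 1 IU/mL into RBC suspension at whole-blood density.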
For assay [20] the target is unchanged. As to the kind of experiment: partition to Cyno RBC, human HemA plasma, 5 min.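 Also: FVIII fusion spiked at 1 IU/mL into RBC suspension at whole-blood density.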
Method: as §2

As a reminder, the Kd is the constant that tells how readily two partners part at equilibrium. A word on the koff: it is a measure of how fast the partners let go of each other. The term kon denotes a measure of how fast the partners come together.

B1: B-domain deleted FVIII (other, human, UniProt P00451 20-2351, looked up)
chain: ATRRYYLGAVELSWDYMQSDLGELPVDARFPPRVPKSFPFNTSVVYKKTLFVEFTDHLFNIAKPRPPWMGLLGPTIQAEVYDTVVITLKNMASHPVSLHAVGVSYWKASEGAEYDDQTSQREKEDDKVFPGGSHTYVWQVLKENGPMASDPLCLTYSYLSHVDLVKDLNSGLIGALLVCREGSLAKEKTQTLHKFILLFAVFDEGKSWHSETKNSLMQDRDAASARAWPKMHTVNGYVNRSLPGLIGCHRKSVYWHVIGMGTTPEVHSIFLEGHTFLVRNHRQASLEISPITFLTAQTLLMDLGQFLLFCHISSHQHDGMEAYVKVDSCPEEPQLRMKNNEEAEDYDDDLTDSEMDVVRFDDDNSPSFIQIRSVAKKHPKTWVHYIAAEEEDWDYAPLVLAPDDRSYKSQYLNNGPQRIGRKYKKVRFMAYTDETFKTREAIQHESGILGPLLYGEVGDTLLIIFKNQASRPYNIYPHGITDVRPLYSRRLPKGVKHLKDFPILPGEIFKYKWTVTVEDGPTKSDPRCLTRYYSSFVNMERDLASGLIGPLLICYKESVDQRGNQIMSDKRNVILFSVFDENRSWYLTENIQRFLPNPAGVQLEDPEFQASNIMHSINGYVFDSLQLSVCLHEVAYWYILSIGAQTDFLSVFFSGYTFKHKMVYEDTLTLFPFSGETVFMSMENPGLWILGCHNSDFRNRGMTALLKVSSCDKNTGDYYEDSYEDISAYLLSKNNAIEPRSFSQNPPVLKRHQREITRTTLQSDQEEIDYDDTISVEMKKEDFDIYDEDENQSPRSFQKKTRHYFIAAVERLWDYGMSSSPHVLRNRAQSGSVPQFKKVVFQEFTDGSFTQPLYRGELNEHLGLLGPYIRAEVEDNIMVTFRNQASRPYSFYSSLISYEEDQRQGAEPRKNFVKPNETKTYFWKVQHHMAPTKDEFDCKAWAYFSDVDLEKDVHSGLIGPLLVCHTNTLNPAHGRQVTVQEFALFFTIFDETKSWYFTENMERNCRAPCNIQMEDPTFKENYRFHAINGYIMDTLPGLVMAQDQRIRWYLLSMGSNENIHSIHFSGHVFTVRKKEEYKMALYNLYPGVFETVEMLPSKAGIWRVECLIGEHLHAGMSTLFLVYSNKCQTPLGMASGHIRDFQITASGQYGQWAPKLARLHYSGSINAWSTKEPFSWIKVDLLAPMIIHGIKTQGARQKFSSLYISQFIIMYSLDGKKWQTYRGNSTGTLMVFFGNVDSSGIKHNIFNPPIIARYIRLHPTHYSIRSTLRMELMGCDLNSCSMPLGMESKAISDAQITASSYFTNMFATWSPSKARLHLQGRSNAWRPQVNNPKEWLQVDFQKTMKVTGVTTQGVKSLLTSMYVKEFLISSSQDGHQWTLFFQNGKVKVFQGNQDSFTPVVNSLDPPLLTRYLRIHPQSWVHQIALRMEVLGCEAQDLY
notes: Untargeted control without scFv; also called BDD-FVIII; BDD
Regarding B1, the “percentage bound to human RBC” value in assay [1] stood at 0%; in assay [2], 0%; in assay [3] it was 0%; in [4] it was 2%; in assay [5] it was 2%; in assay [6] it was 4%.

B2: TPP-8743 FVIII-scFv fusion protein (other)
chain: ATRRYYLGAVELSWDYMQSDLGELPVDARFPPRVPKSFPFNTSVVYKKTLFVEFTDHLFNIAKPRPPWMGLLGPTIQAEVYDTVVITLKNMASHPVSLHAVGVSYWKASEGAEYDDQTSQREKEDDKVFPGGSHTYVWQVLKENGPMASDPLCLTYSYLSHVDLVKDLNSGLIGALLVCREGSLAKEKTQTLHKFILLFAVFDEGKSWHSETKNSLMQDRDAASARAWPKMHTVNGYVNRSLPGLIGCHRKSVYWHVIGMGTTPEVHSIFLEGHTFLVRNHRQASLEISPITFLTAQTLLMDLGQFLLFCHISSHQHDGMEAYVKVDSCPEEPQLRMKNNEEAEDYDDDLTDSEMDVVRFDDDNSPSFIQIRSVAKKHPKTWVHYIAAEEEDWDYAPLVLAPDDRSYKSQYLNNGPQRIGRKYKKVRFMAYTDETFKTREAIQHESGILGPLLYGEVGDTLLIIFKNQASRPYNIYPHGITDVRPLYSRRLPKGVKHLKDFPILPGEIFKYKWTVTVEDGPTKSDPRCLTRYYSSFVNMERDLASGLIGPLLICYKESVDQRGNQIMSDKRNVILFSVFDENRSWYLTENIQRFLPNPAGVQLEDPEFQASNIMHSINGYVFDSLQLSVCLHEVAYWYILSIGAQTDFLSVFFSGYTFKHKMVYEDTLTLFPFSGETVFMSMENPGLWILGCHNSDFRNRGMTALLKVSSCDKNTGDYYEDSYEDISAYLLSKNNAIEPRSFSQNGGGGSTGGTGGSSGGGTGSGGGGTGGSGGTDIQLTQSPSFLSASVGDRVTITCRASSSVRYIYWFQQKPGKAPKLLIYATSFRQSGVPSRFSGSGSGTEYTLTISSLQPEDFATYYCHQRNSFPYTFGQGTKLEIKGGGGSGGGGSGGGGSGGGGSEVQLVQSGAEVKKPGASVKVSCKASGYTFTTYAIHWVRQAPGQGLEWMGYINPSSGYTRYNPKFKGRVTMTRDKSTSTAYMELRSLRSDDTAVYYCWTGTRDYWGQGTTVTVSSGGGGSQNPPVLKRHQREITDENQSPRSFQKKTRHYFIAAVERLWDYGMSSSPHVLRNRAQSGSVPQFKKVVFQEFTDGSFTQPLYRGELNEHLGLLGPYIRAEVEDNIMVTFRNQASRPYSFYSSLISYEEDQRQGAEPRKNFVKPNETKTYFWKVQHHMAPTKDEFDCKAWAYFSDVDLEKDVHSGLIGPLLVCHTNTLNPAHGRQVTVQEFALFFTIFDETKSWYFTENMERNCRAPCNIQMEDPTFKENYRFHAINGYIMDTLPGLVMAQDQRIRWYLLSMGSNENIHSIHFSGHVFTVRKKEEYKMALYNLYPGVFETVEMLPSKAGIWRVECLIGEHLHAGMSTLFLVYSNKCQTPLGMASGHIRDFQITASGQYGQWAPKLARLHYSGSINAWSTKEPFSWIKVDLLAPMIIHGIKTQGARQKFSSLYISQFIIMYSLDGKKWQTYRGNSTGTLMVFFGNVDSSGIKHNIFNPPIIARYIRLHPTHYSIRSTLRMELMGCDLNSCSMPLGMESKAISDAQITASSYFTNMFATWSPSKARLHLQGRSNAWRPQVNNPKEWLQVDFQKTMKVTGVTTQGVKSLLTSMYVKEFLISSSQDGHQWTLFFQNGKVKVFQGNQDSFTPVVNSLDPPLLTRYLRIHPQSWVHQIALRMEVLGCEAQDLY
notes: The entry is the mature protein without signal peptide; most of the material is cut at the furin site into two chains; also called PPB 6723
Take B2: the “percentage bound to human RBC” value stood at 78% in assay [7]; 78.8% in [10]; 79.6% in assay [11]; 76.4% in assay [12]; 79.4% in assay [13]; 69.5% in [14]. Further, in assay [17], the “percentage bound to human RBC” value stood at 45.9%. Further, the “% bound to Cyno RBC” value in assay [8] was 73%; in assay [9], 65.7%; in assay [15], 17.4%; in assay [16], 78.5%; in [19] it was 79%; in [20], 53%. Moreover, in assay [18], binding was put at a Kd of 4.89 nM. The off-rate constant (koff) in [18] turned out to be 0.0027 s⁻¹. For the same molecule, the kon in [18] turned out to be 525000 M⁻¹ s⁻¹.

Values taken from patent US20190359687A1 (Bayer, published 2019).
